Experimental data from the supplement of paper PMC9170038.

Experiments:
MS2 coat protein [1] = assay: apparent KD of MS2 coat protein, switch ON state; designed switch direction (-1 OFF switch, 1 ON switch): 1; higher = weaker reporter binding; details: FMN input: 0 or 200 uM; Eterna round: R93 (includes R88 designs)
Method in brief: (§1)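 For every design, apparent KD is the median of normalised binding-curve fits from its clusters. The RNA switches were transcribed on-chip from Illumina sequencing clusters and titrated with SNAP-549-labelled MS2 coat protein (twofold steps, 0.7 or 1.5 nM to 3 µM; 0.8–1.5 h to 10–20 min per step). Titrations used 100 mM Tris-HCl pH 7.5, 80 mM KCl, 4 mM MgCl2, without or with constant ligand.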

MS2 coat protein [2] = assay: apparent KD of MS2 coat protein, switch OFF state (with FMN for OFF switches, without FMN for ON switches); designed switch direction (-1 OFF switch, 1 ON switch): 1; higher = weaker reporter binding; details: FMN input: 0 or 200 uM; Eterna round: R93 (includes R88 designs)
Method in brief: as §1

Row | Sequence | apparent KD of MS2 coat protein (MS2 coat protein [1]) [µM] | apparent KD of MS2 coat protein (MS2 coat protein [2]) [µM]
1 | AAUAUACAUGAGGAUCACCCAUGUUAGGUGGGACUAGGAUAUCAAAAGAAAGAGUAAGAAUGAGAAGGAGUAGAAA [JR_SS001_Sub016] | 0.145 | 0.24
2 | AAUAUACAUGAGGAUCACCCAUGUUUUAAUAGCUGAGGAUAUACGGGUGAAAACAGCAUAGUAGAAGGCAGGUAUA [SameState1 Malc#7] | 0.0276 | 0.0867
3 | AAUAUAUUAUUUAAGGAUAUCAUAGGAAAAACAUGAGGAUCACCCAUGUGGGAAACCUGGUCGGGUGAGAAGGUGGAUAAUAUAU [Samwise Clockwise 34 - Jieux - Same State 2] | 0.0937 | 0.317
4 | AGAAAACAUGAGGAUCACCCAUGUAGAAAUAUGGGAGGAUAUACAAAGACGAAAGUCAGAGUAGAAGGCCUAAAAA [salish99-SS1-085] | 0.0146 | 0.0773
5 | AGAAAACAUGAGGAUCACCCAUGUAGAAAUAUGGGAGGAUAUACGAAGACGAAAGUCAAAGUAGAAGGCCUAAAAG [Mat - Same State 1 - Eli mod - D102] | 0.022 | 0.0698
6 | AGAAAUAAAACGCAGGAUAUCCAAAAGAAAACAUGAGGAUCACCCAUGUAAAAGAAAAUAAAAUGGGAGAAGGGCGAAAUAAAGA [Mat - Same State 2 - Eli mod - D92] | 0.0193 | 0.0209
7 | AGAAAUAAAAGACAGGAUAUCCUUAAGAAAACAUGAGGAUCACCCAUGUAAAAGAAAAUAAAAAGGGAGAAGGGUCAAAAUAAGA [Mat - Same State 2 - JL mod - D80] | 0.018 | 0.0262
8 | AGAAAUAAAAGAGAGGAUAUCCAAAAGAAAACAUGAGGAUCACCCAUGUAAAAGAAAAUAAAAUGGGAGAAGGCUCAAUAAAAGA [Modifying Jieux] | 0.0179 | 0.042
9 | AGAAAUAAAAGAGAGGAUAUCCAAAAGAAAACAUGAGGAUCACCCAUGUAAAAGAAAAUAAAAUGGGAGAAGGCUCGAAAUAAGA [Topaz 21] | 0.0183 | 0.107
10 | AGAAAUAAAAGAGAGGAUAUCCAAAAGAAAACAUGAGGAUCACCCAUGUAAAAGAAAAUAAAGUGGGAGAAGGCUCAAAAUAAGA [Jieux modified] | 0.0164 | 0.129
11 | AGAAAUAAAAGGCAGGAUAUCCAAAAGAAAACAUGAGGAUCACCCAUGUAAAAGAAAAAAAAAUGGGAGAAGGGCCAAAUAAAGA [Mat - Same State 2 - Eli mod - D90] | 0.0207 | 0.0214
12 | AGAAAUAAAAGUCAGGAUAUGGGUAAGAAAACAUGAGGAUCACCCAUGUAAAAGAAAAUAAAAAACCAGAAGGGACAAAAUAAAG [Reversing G segment in JL's winner (80%) Variant 4] | 0.0301 | 0.0886
13 | AGCACGUGAUUGGAGGAUAUGUAGUAAGCAACAUGAGGAUCACCCAUGUCUGAGGCUGAAAAGCAGCAGAAGGCCGAUACAACCA [SS2-1.5] | 0.0182 | 0.0192
14 | AGGAAACAUGAGGAUCACCCAUGUAAAAAUAUGGGAGGAUAUACAAACAGGAAAGUGAGAGUAGAAGGCCUAAAAG [Garnet 19] | 0.0424 | 0.231
15 | AGGAAACAUGAGGAUCACCCAUGUAAAAAUAUGGGAGGAUAUUGAAAGACGAAAGUCAAACAAGAAGGCCUAAAAG [Garnet 21] | 0.024 | 0.128
16 | AGGAGACAUGAGGAUCACCCAUGUGAGAAGAGGCGAGGAUAUCGAAAGAAAGAAGAGAAACGAGAAGGCGCGAGAG [salish99-SS1-025] | 0.0284 | 0.0374
17 | AUAAAACAUGAGGAUCACCCAUGUAAAAAUAUGGGAGGAUAUACGAAAUAAAAUAAAUACGUAGAAGGCCUAAAAA [SS! MT 20] | 0.0202 | 0.111
